Experimental data taken from patent US20100120063A1, “GPCR Arrestin Assays” (DISCOVERX CORPORATION, priority 2008, published 2010).
Read-outs that look alike come from different tables or passages of the source. Each block holds one substance with its values, some of them ahead of it.

Legend:
Assay in all cases: cell-based or functional assay
[1] = molecular target: OPRM1-PK (opiod receptor mu-1 fused to PK) (E. coli) (UniProt P35372); design: EC50, arrestin-EA recruitment to OPRM1-PK (EFC) (M (unit not given)): unit not given beside the values
PROKR2, not fused = PROKR2, not fused (UniProt Q8NFJ6); design: EC50, arrestin-EA recruitment to OPRM1-PK (EFC), cells headed 'OPRM1 + PRC' (M (unit not given)): unit not given beside the values
Sequence of PROKR2, not fused (Q8NFJ6 whole entry, the tested form may be a part): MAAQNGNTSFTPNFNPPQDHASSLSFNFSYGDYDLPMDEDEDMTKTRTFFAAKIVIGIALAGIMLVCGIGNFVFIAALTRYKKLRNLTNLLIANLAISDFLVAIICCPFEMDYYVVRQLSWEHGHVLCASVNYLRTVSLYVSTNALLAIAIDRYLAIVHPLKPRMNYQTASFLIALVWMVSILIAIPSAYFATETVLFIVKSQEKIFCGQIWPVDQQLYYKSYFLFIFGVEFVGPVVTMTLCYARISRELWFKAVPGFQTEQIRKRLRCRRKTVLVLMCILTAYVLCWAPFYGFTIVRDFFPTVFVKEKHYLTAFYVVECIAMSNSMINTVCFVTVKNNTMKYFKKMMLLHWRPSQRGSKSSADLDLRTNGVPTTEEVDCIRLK

[2] = molecular target: OPRD1 (opiod receptor delta 1), not fused (UniProt P41143)
OPRD1-PK fusion protein [3] = molecular target: OPRD1-PK fusion protein; design: EC50, arrestin-EA recruitment to OPRD1-PK (EFC) (M (unit not given)): unit not given beside the values
[4] = molecular target: CHRM2-PK2 (cholinergic receptor, muscarinic 2, fused to PK2) (E. coli) (UniProt P08172); design: EC50 of oxotremorine for arrestin-EA recruitment, EFC (M (unit not given)): unit not given beside the values
[5] = molecular target: CRTH2-PK2 (G Protein-coupled receptor 44 fused to PK2) (E. coli) (UniProt Q9Y5Y4); design: EC50 of prostaglandin for arrestin-EA recruitment, EFC (M (unit not given)): unit not given beside the values
[6] = molecular target: OPRM1-PK (opiod receptor mu-1 fused to PK) (E. coli) (UniProt P35372); design: EC50, arrestin-EA recruitment to OPRM1-PK (EFC), cells headed 'OPRM1 + PRC' (M (unit not given)): unit not given beside the values
[7] = molecular target: OPRM1-PK (opiod receptor mu-1 fused to PK) (E. coli) (UniProt P35372)
[8] = molecular target: SSTR4 with the EGS linker and PK (UniProt P31391)
Sequence of SSTR4 with the EGS linker and PK (P31391 other isoform, or with tags, fused parts or gaps): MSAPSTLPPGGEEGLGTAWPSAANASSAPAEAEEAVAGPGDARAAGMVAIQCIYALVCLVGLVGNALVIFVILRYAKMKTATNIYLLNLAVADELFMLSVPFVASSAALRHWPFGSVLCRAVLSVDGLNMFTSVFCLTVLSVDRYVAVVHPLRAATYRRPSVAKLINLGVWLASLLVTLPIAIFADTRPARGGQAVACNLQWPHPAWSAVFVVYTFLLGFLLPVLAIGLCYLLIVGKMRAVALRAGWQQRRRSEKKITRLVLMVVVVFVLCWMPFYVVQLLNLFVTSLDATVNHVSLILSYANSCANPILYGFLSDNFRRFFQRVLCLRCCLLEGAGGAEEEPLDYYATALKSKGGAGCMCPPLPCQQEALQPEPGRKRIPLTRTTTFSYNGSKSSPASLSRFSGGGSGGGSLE

[9] = molecular target: HRH3 with the EGS linker and PK (UniProt Q9Y5N1)
Sequence of HRH3 with the EGS linker and PK (Q9Y5N1 other isoform, or with tags, fused parts or gaps): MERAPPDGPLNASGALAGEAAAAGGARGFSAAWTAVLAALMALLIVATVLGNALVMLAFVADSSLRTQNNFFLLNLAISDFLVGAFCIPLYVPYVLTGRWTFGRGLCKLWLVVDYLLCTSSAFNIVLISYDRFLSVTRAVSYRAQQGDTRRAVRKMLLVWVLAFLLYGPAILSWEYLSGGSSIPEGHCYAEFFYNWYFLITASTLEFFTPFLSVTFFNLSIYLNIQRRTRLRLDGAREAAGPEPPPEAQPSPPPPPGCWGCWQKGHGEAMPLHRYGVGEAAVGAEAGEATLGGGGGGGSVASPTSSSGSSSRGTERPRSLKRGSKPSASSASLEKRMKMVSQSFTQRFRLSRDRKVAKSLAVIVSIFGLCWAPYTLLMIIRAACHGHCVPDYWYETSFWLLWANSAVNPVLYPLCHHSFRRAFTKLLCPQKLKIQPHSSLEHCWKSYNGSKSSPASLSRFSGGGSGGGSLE

[10] = molecular target: CRHR2-PK1 (corticotropin releasing hormone receptor 2 fused to PK1) (E. coli) (UniProt Q13324)
[11] = molecular target: MC3R-PK1 (melanocortin 3 receptor fused to PK1) (E. coli) (UniProt P41968)
[12] = molecular target: OPRM1-PK2 (opiod receptor mu-1 fused to PK2) (E. coli) (UniProt P35372)
[13] = molecular target: MC3R-PK2 (melanocortin 3 receptor fused to PK2) (E. coli) (UniProt P41968)
[14] = molecular target: CRHR2-PK2 (corticotropin releasing hormone receptor 2 fused to PK2) (E. coli) (UniProt Q13324)
[15] = molecular target: CCR4-PK2 (chemokine receptor 4 fused to PK2) (E. coli) (UniProt P51679)
[16] = molecular target: CRTH2-PK2 (G Protein-coupled receptor 44 fused to PK2) (E. coli) (UniProt Q9Y5Y4)
[17] = molecular target: SSTR4-PK without the EGS linker (UniProt P31391)
Sequence of SSTR4-PK without the EGS linker (P31391 other isoform, or with tags, fused parts or gaps): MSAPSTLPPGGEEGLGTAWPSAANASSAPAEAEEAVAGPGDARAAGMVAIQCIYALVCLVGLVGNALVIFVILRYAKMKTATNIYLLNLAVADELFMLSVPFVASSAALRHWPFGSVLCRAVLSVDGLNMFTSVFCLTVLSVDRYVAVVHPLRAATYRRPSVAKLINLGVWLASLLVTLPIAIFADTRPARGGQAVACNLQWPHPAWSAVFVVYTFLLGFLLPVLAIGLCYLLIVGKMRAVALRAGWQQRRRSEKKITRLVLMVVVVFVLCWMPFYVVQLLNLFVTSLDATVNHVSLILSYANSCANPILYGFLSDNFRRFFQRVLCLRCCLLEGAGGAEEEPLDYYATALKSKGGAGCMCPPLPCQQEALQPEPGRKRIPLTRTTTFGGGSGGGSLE

[18] = molecular target: CHRM2-PK1 (cholinergic receptor, muscarinic 2, fused to PK1) (E. coli) (UniProt P08172)
OPRD1-PK fusion protein [19] = molecular target: OPRD1-PK fusion protein
[20] = molecular target: SSTR1-PK2 (somatostatin receptor 1 fused to PK2) (E. coli) (UniProt P30872)
[21] = molecular target: CRTH2-PK1 (G Protein-coupled receptor 44 fused to PK1) (E. coli) (UniProt Q9Y5Y4)
[22] = molecular target: CHRM2-PK2 (cholinergic receptor, muscarinic 2, fused to PK2) (E. coli) (UniProt P08172)
[23] = molecular target: CCR4-PK1 (chemokine receptor 4 fused to PK1) (E. coli) (UniProt P51679)
[24] = molecular target: CHRM3 with the EGS linker and PK (UniProt P20309)
[25] = molecular target: SSTR1-PK2 (somatostatin receptor 1 fused to PK2) (E. coli) (UniProt P30872); remark: listed apart in the source
[26] = molecular target: CHRM2-PK2 (cholinergic receptor, muscarinic 2, fused to PK2) (E. coli) (UniProt P08172); remark: listed apart in the source

Substance: DADLE (peptide)
LOGEC50, arrestin-EA recruitment to OPRM1-PK (EFC) (log M (unit not given)) [1]: -6.95

Substance: DAMAGO, [D-Ala2,N-Me-Phe4,Gly5-ol]-enkephalin (peptide)
EC50, arrestin-EA recruitment to OPRD1-PK (EFC) (M (unit not given)) (OPRD1-PK fusion protein [3]): 3.64e-05
LOGEC50, arrestin-EA recruitment to OPRD1-PK (EFC) (log M (unit not given)) (OPRD1-PK fusion protein [3]): -4.44

Substance: arrestin-EA fusion protein (beta arrestin fused at its C terminus to the EA fragment of β-galactosidase) (from UniProt P49407 1-418; P00722 48-1024)
BOTTOM of the agonist dose-response fit, EFC chemiluminescence [4]: 336
EC50 of oxotremorine for arrestin-EA recruitment, EFC (M (unit not given)) [4]: 6.29e-05
LOGEC50 of oxotremorine for arrestin-EA recruitment, EFC (log M (unit not given)) [4]: -5.2
TOP of the agonist dose-response fit, EFC chemiluminescence [4]: 2040
BOTTOM of the agonist dose-response fit, EFC chemiluminescence [5]: 29200
LOGEC50 of prostaglandin for arrestin-EA recruitment, EFC (log M (unit not given)) [5]: -6.76
TOP of the agonist dose-response fit, EFC chemiluminescence [5]: 76000
BOTTOM of the DADLE dose-response fit, EFC chemiluminescence, U2OS cells with OPRM1-PK [1]: 626
S:B with DADLE, EFC chemiluminescence, U2OS cells with OPRM1-PK [1]: 32.7
S:B with deltorphin, EFC chemiluminescence, U2OS cells with OPRM1-PK only [1]: 2.5
TOP of the DADLE dose-response fit, EFC chemiluminescence, U2OS cells with OPRM1-PK [1]: 17100
BOTTOM of the EG-VEGF dose-response fit, EFC chemiluminescence, cells headed 'OPRM1 + PRC' [6]: 25.8
TOP of the EG-VEGF dose-response fit, EFC chemiluminescence, cells headed 'OPRM1 + PRC' [6]: 57.3
BOTTOM of the OPRM1-agonist dose-response fit, EFC chemiluminescence, U2OS cells with OPRM1-PK [7]: 1010
S:B with deltorphin, EFC chemiluminescence, U2OS cells with OPRM1-PK and OPRD1 [7]: 7.4
S:B, EFC chemiluminescence [7]: 26
TOP of the OPRM1-agonist dose-response fit, EFC chemiluminescence, U2OS cells with OPRM1-PK [7]: 10900
BOTTOM of the agonist dose-response fit, EFC chemiluminescence [8]: 1380
EC50 of the agonist (not named) for arrestin-EA recruitment, EFC [8]: 0.732 nM
LOGEC50 of the agonist (not named) for arrestin-EA recruitment, EFC (log M (unit not given)) [8]: -9.14
TOP of the agonist dose-response fit, EFC chemiluminescence [8]: 3420
BOTTOM of the agonist dose-response fit, EFC chemiluminescence [9]: 273
EC50 of the agonist (not named) for arrestin-EA recruitment, EFC [9]: 55.2 nM
LOGEC50 of the agonist (not named) for arrestin-EA recruitment, EFC (log M (unit not given)) [9]: -7.26
TOP of the agonist dose-response fit, EFC chemiluminescence [9]: 935
S:B, EFC chemiluminescence [10]: 13
S:B, EFC chemiluminescence [11]: 1
S:B, EFC chemiluminescence [12]: 8
S:B, EFC chemiluminescence [13]: 3.2
S:B, EFC chemiluminescence [14]: 17
S:B, EFC chemiluminescence [15]: 3
S:B, EFC chemiluminescence [16]: 2.6
response in the EFC arrestin assay, CHO cells [17]: 1.5 fold
S:B, EFC chemiluminescence [18]: 1.6
BOTTOM of the OPRM1-agonist dose-response fit, EFC chemiluminescence, CHO cells with OPRD1-PK and OPRM1 (OPRD1-PK fusion protein [19]): 20.3
S:B, EFC chemiluminescence, CHO cells with OPRD1-PK and OPRM1 (OPRD1-PK fusion protein [19]): 31.9
TOP of the OPRM1-agonist dose-response fit, EFC chemiluminescence, CHO cells with OPRD1-PK and OPRM1 (OPRD1-PK fusion protein [19]): 201
BOTTOM of the agonist dose-response fit, EFC chemiluminescence [20]: 4800
EC50 of the agonist (not named) for arrestin-EA recruitment, EFC [20]: 8.15 nM
LOGEC50 of the agonist (not named) for arrestin-EA recruitment, EFC (log M (unit not given)) [20]: -8.09
TOP of the agonist dose-response fit, EFC chemiluminescence [20]: 10500
S:B, EFC chemiluminescence [21]: 1
S:B, EFC chemiluminescence [22]: 6.1
S:B, EFC chemiluminescence [23]: 19
BOTTOM of the agonist dose-response fit, EFC chemiluminescence [24]: 546
EC50 of the agonist (not named) for arrestin-EA recruitment, EFC [24]: 82.2 nM
LOGEC50 of the agonist (not named) for arrestin-EA recruitment, EFC (log M (unit not given)) [24]: -7.08
TOP of the agonist dose-response fit, EFC chemiluminescence [24]: 1550
BOTTOM of the agonist dose-response fit, EFC chemiluminescence [25]: 4790
Log EC50 of the agonist (not named) for arrestin-EA recruitment, EFC (log M (unit not given)) [25]: -8.07
EC50 of oxotremorine for arrestin-EA recruitment, EFC [26]: 6290 nM
BOTTOM of the OPRM1-agonist dose-response fit, EFC chemiluminescence, CHO cells with OPRD1-PK (OPRD1-PK fusion protein [3]): 520
TOP of the OPRM1-agonist dose-response fit, EFC chemiluminescence, CHO cells with OPRD1-PK (OPRD1-PK fusion protein [3]): 2810

Substance: arrestin-EA fusion protein (beta arrestin fused at its C terminus to the EA fragment of β-galactosidase) (from UniProt P49407 1-418; P00722 48-1024) (other; in M (unit assumed))
EC50 of prostaglandin for arrestin-EA recruitment, EFC (M (unit not given)) [5]: 1.74e-07

The next lines start with the values.

EC50, arrestin-EA recruitment to OPRM1-PK (EFC), cells headed 'OPRM1 + PRC' (M (unit not given)) (PROKR2, not fused): 3.21e-08
LOGEC50, arrestin-EA recruitment to OPRM1-PK (EFC), cells headed 'OPRM1 + PRC' (log M (unit not given)) (PROKR2, not fused): -7.49
Substance: EG-VEGF (from UniProt P58294 20-105) (ligand)

EC50, arrestin-EA recruitment to OPRM1-PK (EFC) (M (unit not given)) [1]: 0.0007
LOGEC50, arrestin-EA recruitment to OPRM1-PK (EFC) (log M (unit not given)) [1]: -3.12
EC50, arrestin-EA recruitment to co-expressed OPRM1-PK (EFC, transactivation) [2]: 8.38 nM
LOGEC50, arrestin-EA recruitment to co-expressed OPRM1-PK (EFC, transactivation) (log M (unit not given)) [2]: -8.08
Substance: deltorphin (peptide)

EC50, arrestin-EA recruitment to OPRM1-PK (EFC) (M (unit not given)) [1]: 1.11e-07
Substance: DADLE (peptide; in M (unit assumed))
